Measured values published in patent publication US6613957 (UAB RESEARCH FOUNDATION, dated 2003).

Biological target: T1, human β-globin polypeptide (product of the human β-globin transgene) (human, UniProt P68871 2-147)
T1 construct: Two copies stand in each hemoglobin tetramer (α2β2); also called hβ
Test: nondenaturing isoelectric focusing of transgenic mouse hemolysate; band excised and its chains identified on a denaturing cellulose acetate strip
Source text: Human α and β-globin mRNA detected in lung is the result of incomplete perfusion. Mouse α and β-globin mRNA are also observed in this non-erythroid tissue. (B) Nondenaturing, isoelectric focusing of transgenic mouse hemolysates. Hemolysates of control mouse (lane 1) human (lane 4) and transgenic mouse (lanes 2 and 3) blood were run on a native agarose isoelectric focusing gel and photographed without staining. (C) Denaturing cellulose acetate strip electrophoresis of transgenic mouse hemogobins. Hemoglobins were denatured in alkaline-urea buffer, electrophoresed on cellulose acetate strips, and stained with imido black.
To determine whether complete human hemoglobins were formed, we separated hemolysates of the blood of animals from two different transgenic lines by non-denaturing ioslectric focusing (IEF) (FIG. 14B). The first lane is a mouse control and the last lane is a normal human sample. The predominant band in each of the controls is the major adult hemoglobin, mouse α_2β_2 or human α_2β_2, respectively.

T1 sequence (P68871 2-147 limits assumed): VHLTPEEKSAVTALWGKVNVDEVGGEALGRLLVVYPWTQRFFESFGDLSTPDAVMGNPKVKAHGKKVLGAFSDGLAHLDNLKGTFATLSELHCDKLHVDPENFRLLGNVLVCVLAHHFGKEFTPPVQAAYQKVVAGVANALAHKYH

B1: mouse α-globin polypeptide (endogenous) (other)
chain: not shown
notes: Endogenous chain in the red blood cells of the transgenic mice; also called mα
binding result: binds

B2: human α-globin polypeptide (product of the human α1-globin transgene) (other)
chain: not shown
notes: Two copies stand in each hemoglobin tetramer (α2β2); also called hα
binding result: binds
